Results from PMC6804253, “Predicting and Experimentally Validating Hot-Spot Residues at Protein–Protein Interfaces” (ACS Chemical Biology, 2019).

Key:
[1] = system: PPIs of the SKEMPI data set (by PDBID); assay: SKEMPI experimental ΔΔG, single mutations to alanine; format: binding; details: for sk_class: class of the SKEMPI experimental ΔΔG
[2] = system: PPIs of the SKEMPI data set (by PDBID); details: single mutation to alanine, ref SKEMPI, cited from earlier work; for sk_ddG_kJ (SKEMPI experimental ΔΔG): complex given by PDBID, residue group SQNT

Row | Molecule | sk_class (class of the SKEMPI experimental ΔΔG) ([1]; class by ΔΔG threshold 4.184 kJ/mol, ref SKEMPI) | sk_ddG_kJ (SKEMPI experimental ΔΔG, mutation to alanine) ([2]; PPI given by PDBID, sheet sortedByGroup, r_group DERKH) [kJ] | sk_class [1] | sk_ddG_kJ (SKEMPI experimental ΔΔG) [2] [kJ]
1 | 1A4Y RA457A (protein, UniProt P13489 2-461, looked up, variant R457A) Ribonuclease inhibitor: SLDIQSLDIQCEELSDARWAELLPLLQQCQVVRLDDCGLTEARCKDISSALRVNPALAELNLRSNELGDVGVHCVLQGLQTPSCKIQKLSLQNCCLTGAGCGVLSSTLRTLPTLQELHLSDNLLGDAGLQLLCEGLLDPQCRLEKLQLEYCSLSAASCEPLASVLRAKPDFKELTVSNNDINEAGVRVLCQGLKDSPCQLEALKLESCGVTSDNCRDLCGIVASKASLRELALGSNKLGDVGMAELCPGLLHPSSRLRTLWIWECGITAKGCGDLCRVLRAKESLKELSLAGNELGDEGARLLCETLLEPGCQLESLWVKSCSFTAACCSHFSSVLAQNRFLLELQISNNRLEDAGVRELCQGLGQPGSVLRVLWLADCDVSDSSCSSLAATLLANHSLRELDLSNNCLGDAGILQLVESVRQPGCLLEQLVLYDIYWSEEMEDRLQALEKDKPSLAVIS | Neutral (neutral (little effect) 4.184 kJ/mol < ΔΔG > −4.184 kJ/mol) | -0.92 | – | –
2 | 1DAN TU139A (protein, UniProt P13726 33-251, looked up, variant T139A, extracellular domain) extracellular domain: SGTTNTVAAYNLTWKSTNFKTILEWEPKPVNQVYTVQISTKSGDWKSKCFYTTDTECDLTDEIVKDVKQTYLARVFSYPAGNVESTGSAGEPLYENSPEFTPYLETNLGQPTIQSFEQVGTKVNVTVEDERTLVRRNNAFLSLRDVFGKDLIYTLYYWKSSSSGKKTAKTNTNEFLIDVDKGENYCFSVQAVIPSRTVNRKSTDSPVECMGQEKGEFRE | – | – | Neutral (neutral (little effect) 4.184 kJ/mol < ΔΔG > −4.184 kJ/mol) | -0.04
3 | 1DAN TU203A (protein, UniProt P13726 33-251, looked up, variant T203A, extracellular domain) extracellular domain: SGTTNTVAAYNLTWKSTNFKTILEWEPKPVNQVYTVQISTKSGDWKSKCFYTTDTECDLTDEIVKDVKQTYLARVFSYPAGNVESTGSAGEPLYENSPEFTPYLETNLGQPTIQSFEQVGTKVNVTVEDERTLVRRNNTFLSLRDVFGKDLIYTLYYWKSSSSGKKTAKTNTNEFLIDVDKGENYCFSVQAVIPSRTVNRKSADSPVECMGQEKGEFRE | – | – | Neutral (neutral (little effect) 4.184 kJ/mol < ΔΔG > −4.184 kJ/mol) | 0.59
4 | 1DAN TU197A (protein, UniProt P13726 33-251, looked up, variant T197A, extracellular domain) extracellular domain: SGTTNTVAAYNLTWKSTNFKTILEWEPKPVNQVYTVQISTKSGDWKSKCFYTTDTECDLTDEIVKDVKQTYLARVFSYPAGNVESTGSAGEPLYENSPEFTPYLETNLGQPTIQSFEQVGTKVNVTVEDERTLVRRNNTFLSLRDVFGKDLIYTLYYWKSSSSGKKTAKTNTNEFLIDVDKGENYCFSVQAVIPSRAVNRKSTDSPVECMGQEKGEFRE | – | – | Neutral (neutral (little effect) 4.184 kJ/mol < ΔΔG > −4.184 kJ/mol) | 0.46
5 | 1DAN SU163A (protein, UniProt P13726 33-251, looked up, variant S163A, extracellular domain) extracellular domain: SGTTNTVAAYNLTWKSTNFKTILEWEPKPVNQVYTVQISTKSGDWKSKCFYTTDTECDLTDEIVKDVKQTYLARVFSYPAGNVESTGSAGEPLYENSPEFTPYLETNLGQPTIQSFEQVGTKVNVTVEDERTLVRRNNTFLSLRDVFGKDLIYTLYYWKSSSAGKKTAKTNTNEFLIDVDKGENYCFSVQAVIPSRTVNRKSTDSPVECMGQEKGEFRE | – | – | Neutral (neutral (little effect) 4.184 kJ/mol < ΔΔG > −4.184 kJ/mol) | 0.08
6 | 1DAN TU172A (protein, UniProt P13726 33-251, looked up, variant T172A, extracellular domain) extracellular domain: SGTTNTVAAYNLTWKSTNFKTILEWEPKPVNQVYTVQISTKSGDWKSKCFYTTDTECDLTDEIVKDVKQTYLARVFSYPAGNVESTGSAGEPLYENSPEFTPYLETNLGQPTIQSFEQVGTKVNVTVEDERTLVRRNNTFLSLRDVFGKDLIYTLYYWKSSSSGKKTAKTNANEFLIDVDKGENYCFSVQAVIPSRTVNRKSTDSPVECMGQEKGEFRE | – | – | Neutral (neutral (little effect) 4.184 kJ/mol < ΔΔG > −4.184 kJ/mol) | -0.08
